Measurements taken from patent US20190367620A1 (Merck KGaA, published 2019).

How the values were obtained:
Assay in all cases: SPR as in Example 1.8
[1] = target: T1, FGFR1 D2 point mutant S45A (human, UniProt P11362 22-254)
T1 chain: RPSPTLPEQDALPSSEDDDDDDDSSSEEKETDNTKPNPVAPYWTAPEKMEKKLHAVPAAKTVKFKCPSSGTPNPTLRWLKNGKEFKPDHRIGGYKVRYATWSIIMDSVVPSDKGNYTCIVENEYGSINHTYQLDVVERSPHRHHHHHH
Protocol: (§1) Binding affinities of anti-FGFR1 antibodies to FGFR1 were measured by Surface Plasmon Resonance (SPR) using a GE Healthcare BIAcore 4000 instrument as follows. Goat anti-human Fc antibody (Jackson ImmunoResearch Laboratories #109-005-098) was first immobilized on BIAcore carboxymethylated dextran CM5 chip using direct coupling to free amino groups following the procedure described by the manufacturer. Antibodies were then captured on the CM5 biosensor chip to achieve approximately 200 response units (RU). Binding measurements were performed using the running HBS-EP+ buffer. A 2-fold dilution series of His-tagged FGFR1 proteins were injected at a flow rate of 30 μl/min at 25° C. Association rates (kₒₙ, per mol/s) and dissociation rates (koff, per s) were calculated using a simple 1:1 Langmuir binding model (Biacore 4000 Evaluation Software). The equilibrium dissociation constant (KD, mol) was calculated as the ratio of koff/kₒₙ.
(§2) To obtain a finer, residue-level mapping of the epitope and to complement the HD exchange data, molecular modelling and manual inspection of the crystal structure of FGFR1 [(Beenken et al. 2012); PDB record 3OJV] was used to select solvent exposed residues within and around the epitope identified by HD exchange. The selected residues were mutated either to alanine (large to small) or to glycine if the selected residue was alanine. In total 35 point mutants were designed, expressed and purified in HEK cells, and tested for binding to mAb #A08 using surface plasmon resonance as described in Example 1.8. The affinity of the antibody for wild-type and each mutant was determined and used to calculate the contribution of each epitope residue to the binding energy.

[2] = target: T2, FGFR1 D2 point mutant K65A (human, UniProt P11362 22-254)
T2 chain: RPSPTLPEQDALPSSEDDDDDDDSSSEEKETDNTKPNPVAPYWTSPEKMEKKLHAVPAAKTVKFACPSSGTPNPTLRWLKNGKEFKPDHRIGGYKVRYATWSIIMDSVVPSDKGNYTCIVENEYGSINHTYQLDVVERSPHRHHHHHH
Protocol: as §1, §2

[3] = target: T3, FGFR1 D2 point mutant H89A (human, UniProt P11362 22-254)
T3 chain: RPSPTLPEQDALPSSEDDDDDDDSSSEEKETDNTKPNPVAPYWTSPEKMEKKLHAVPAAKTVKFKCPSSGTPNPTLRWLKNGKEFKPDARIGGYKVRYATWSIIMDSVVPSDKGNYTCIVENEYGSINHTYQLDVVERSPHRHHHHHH
Protocol: as §1, §2

[4] = target: T4, FGFR1 D2 point mutant I91A (human, UniProt P11362 22-254)
T4 chain: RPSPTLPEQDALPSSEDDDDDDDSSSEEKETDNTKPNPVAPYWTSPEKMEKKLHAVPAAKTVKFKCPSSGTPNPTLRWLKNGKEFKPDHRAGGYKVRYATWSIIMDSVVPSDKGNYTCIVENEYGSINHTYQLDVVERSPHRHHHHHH
Protocol: as §1, §2

[5] = target: T5, FGFR1 D2 point mutant Y94A (human, UniProt P11362 22-254)
T5 construct: Uncharacteristic melting curve
T5 chain: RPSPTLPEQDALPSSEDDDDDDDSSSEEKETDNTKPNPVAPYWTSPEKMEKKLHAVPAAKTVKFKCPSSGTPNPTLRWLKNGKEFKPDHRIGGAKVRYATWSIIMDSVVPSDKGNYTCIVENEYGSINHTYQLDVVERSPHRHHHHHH
Protocol: as §1, §2

[6] = target: T6, FGFR1 D2 point mutant R97A (human, UniProt P11362 22-254)
T6 chain: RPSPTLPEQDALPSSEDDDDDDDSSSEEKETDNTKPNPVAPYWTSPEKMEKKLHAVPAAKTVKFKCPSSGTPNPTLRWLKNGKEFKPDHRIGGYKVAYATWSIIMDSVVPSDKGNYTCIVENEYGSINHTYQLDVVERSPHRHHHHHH
Protocol: as §1, §2

[7] = target: T7, FGFR1 D2 point mutant Y98A (human, UniProt P11362 22-254)
T7 chain: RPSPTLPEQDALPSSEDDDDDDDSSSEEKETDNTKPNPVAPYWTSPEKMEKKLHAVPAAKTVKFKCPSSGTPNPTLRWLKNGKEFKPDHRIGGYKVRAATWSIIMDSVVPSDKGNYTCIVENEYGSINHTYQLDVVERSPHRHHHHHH
Protocol: as §1, §2

[8] = target: T8, FGFR1 D2 point mutant T100A (human, UniProt P11362 22-254)
T8 chain: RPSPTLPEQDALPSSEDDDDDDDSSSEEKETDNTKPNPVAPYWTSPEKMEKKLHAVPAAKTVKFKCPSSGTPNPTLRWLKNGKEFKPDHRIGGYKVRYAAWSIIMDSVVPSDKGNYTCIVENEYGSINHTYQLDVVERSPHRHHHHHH
Protocol: as §1, §2

[9] = target: T9, FGFR1 D2 point mutant S102A (human, UniProt P11362 22-254)
T9 chain: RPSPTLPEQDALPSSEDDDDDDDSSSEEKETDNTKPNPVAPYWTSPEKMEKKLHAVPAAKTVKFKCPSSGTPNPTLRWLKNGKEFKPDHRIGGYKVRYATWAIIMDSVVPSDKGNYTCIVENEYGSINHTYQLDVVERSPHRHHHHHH
Protocol: as §1, §2

[10] = target: T10, FGFR1 D2 point mutant I104A (human, UniProt P11362 22-254)
T10 chain: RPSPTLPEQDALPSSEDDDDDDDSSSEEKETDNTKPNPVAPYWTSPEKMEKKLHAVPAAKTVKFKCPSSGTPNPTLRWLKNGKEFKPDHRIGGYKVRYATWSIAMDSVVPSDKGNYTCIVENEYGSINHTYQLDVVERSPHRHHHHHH
Protocol: as §1, §2

[11] = target: T11, FGFR1 D2 point mutant S107A (human, UniProt P11362 22-254)
T11 chain: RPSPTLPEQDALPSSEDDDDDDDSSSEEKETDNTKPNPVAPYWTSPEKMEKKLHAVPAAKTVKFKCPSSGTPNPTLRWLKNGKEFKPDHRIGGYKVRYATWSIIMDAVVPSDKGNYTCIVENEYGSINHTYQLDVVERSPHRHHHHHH
Protocol: as §1, §2

Kd [1]: 0.21 nM
Kd [2]: 0.18 nM
Kd [3]: 0.19 nM
Kd [4]: 0.19 nM
Kd [5]: 0.99 nM
Kd [6]: 4.25 nM
Kd [7]: 0.18 nM
Kd [8]: 0.24 nM
Kd [9]: 0.16 nM
Kd [10]: 0.93 nM
Kd [11]: 0.24 nM
B1: mAb #A08 (antibody, V domains shown)
VH: EVQLQESGPGLVKPSGTLSLTCAVSGGSISSNNWWSWVRQPPGKGLEWIGEIYHSGSTSYNPSLKSRVTISVDKSKNQFSLKLNSVTAADTAVYYCARGTDWFDPWGQGTLVTVSS
VL: QAVLTQPPSVSVAPGQTARITCGGNNIGSESVHWYQQKPGQAPVLVVYDDSDRPSGIPERFSGSNSGNTATLTISRVEAGDEADYYCQVWDSTSDHRVFGGGTKLTVL
notes: Only variable domains are tied to the name mAb #A08 (hit); also called #A08 hit; mAb #08
